The values below are quoted from earlier work in PMC11187271.

pKd: −log10 of the molar value.

The data set has as its target Galectin-1 (Homo sapiens) (UniProt P09382).
UniProt P09382, sequence (P09382 2-135): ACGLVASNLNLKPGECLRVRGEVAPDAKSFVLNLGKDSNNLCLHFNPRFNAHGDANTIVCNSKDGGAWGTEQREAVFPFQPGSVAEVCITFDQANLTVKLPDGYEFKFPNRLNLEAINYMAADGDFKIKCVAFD

On to Thymosin alpha-1 (from UniProt P06454), for which the pKd (as a rule, the negative decadic logarithm of the Kd, by convention in mol/L) is 4.34.
